From article PMC7323979

Biological target: α-synuclein fibrils (preformed seeds) (human) (UniProt P37840)

Sequence of bovine γB-crystallin (P02526 whole entry): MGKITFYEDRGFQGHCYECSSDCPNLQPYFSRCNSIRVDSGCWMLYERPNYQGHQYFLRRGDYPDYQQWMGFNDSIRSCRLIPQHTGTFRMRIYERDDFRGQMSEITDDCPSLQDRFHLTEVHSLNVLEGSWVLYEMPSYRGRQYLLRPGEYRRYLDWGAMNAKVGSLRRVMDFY

lowest crystallin concentration which efficiently inhibits α-syn fibril formation (ThT, 20 μM α-syn monomer, 1 μM α-syn seeds, pH 5.5, 37°C); the same value is also printed as 4.75 μM monomers: 0.1 mg/ml
Substance: bovine γB-crystallin (from UniProt P02526 1-175) (natural protein)
